# T1: Terbium (Tb) labeled-SNAP tagged ROBO2 expressed on HEK293 cells (Homo sapiens (Human), UniProt Q9HCK4 22-1378, terbium label on the SNAP tag)
# T1 construct: also called Tb-labeled ROBO2 cells; ROBO2 expressing cells; not shown: SNAP tag
# T1 sequence: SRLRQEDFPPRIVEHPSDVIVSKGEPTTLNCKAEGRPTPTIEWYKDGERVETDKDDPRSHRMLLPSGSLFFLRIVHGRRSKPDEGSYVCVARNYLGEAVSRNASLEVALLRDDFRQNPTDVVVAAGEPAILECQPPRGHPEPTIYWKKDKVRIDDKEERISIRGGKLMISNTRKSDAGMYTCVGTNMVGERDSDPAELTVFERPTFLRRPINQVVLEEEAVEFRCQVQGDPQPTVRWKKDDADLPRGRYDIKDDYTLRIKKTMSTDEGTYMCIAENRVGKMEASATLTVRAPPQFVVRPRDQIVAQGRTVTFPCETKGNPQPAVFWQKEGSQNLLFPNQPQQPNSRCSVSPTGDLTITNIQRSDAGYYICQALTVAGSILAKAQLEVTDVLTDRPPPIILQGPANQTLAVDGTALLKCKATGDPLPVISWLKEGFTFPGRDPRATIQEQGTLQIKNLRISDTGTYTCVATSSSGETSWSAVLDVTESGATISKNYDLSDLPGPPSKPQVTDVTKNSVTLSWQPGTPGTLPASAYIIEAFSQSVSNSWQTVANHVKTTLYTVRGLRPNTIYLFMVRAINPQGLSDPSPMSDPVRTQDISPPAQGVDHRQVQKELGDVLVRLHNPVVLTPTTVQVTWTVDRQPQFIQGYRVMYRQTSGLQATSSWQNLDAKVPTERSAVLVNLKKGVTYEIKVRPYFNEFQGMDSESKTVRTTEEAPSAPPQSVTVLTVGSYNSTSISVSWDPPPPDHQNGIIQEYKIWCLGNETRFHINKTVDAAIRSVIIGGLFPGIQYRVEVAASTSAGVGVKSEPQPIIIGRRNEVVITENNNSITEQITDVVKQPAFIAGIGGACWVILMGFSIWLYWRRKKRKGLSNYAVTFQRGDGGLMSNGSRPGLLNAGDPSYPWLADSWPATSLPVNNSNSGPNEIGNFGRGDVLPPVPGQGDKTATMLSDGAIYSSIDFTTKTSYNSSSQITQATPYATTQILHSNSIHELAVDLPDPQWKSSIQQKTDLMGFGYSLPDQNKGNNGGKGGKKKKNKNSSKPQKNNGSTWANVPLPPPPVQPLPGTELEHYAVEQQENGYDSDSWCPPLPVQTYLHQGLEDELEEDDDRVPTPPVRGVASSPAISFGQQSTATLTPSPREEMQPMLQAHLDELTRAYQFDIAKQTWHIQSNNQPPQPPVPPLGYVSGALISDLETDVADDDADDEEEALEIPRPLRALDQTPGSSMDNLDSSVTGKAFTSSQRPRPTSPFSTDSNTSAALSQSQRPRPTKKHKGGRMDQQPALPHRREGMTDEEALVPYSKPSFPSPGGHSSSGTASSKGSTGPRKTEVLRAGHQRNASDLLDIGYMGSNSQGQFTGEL
# T2: Human ROBO2 overexpressed on HEK293 cells (human, UniProt Q9HCK4 22-1378)
# T2 construct: also called ROBO2 cells; native ROBO2
# T2 sequence: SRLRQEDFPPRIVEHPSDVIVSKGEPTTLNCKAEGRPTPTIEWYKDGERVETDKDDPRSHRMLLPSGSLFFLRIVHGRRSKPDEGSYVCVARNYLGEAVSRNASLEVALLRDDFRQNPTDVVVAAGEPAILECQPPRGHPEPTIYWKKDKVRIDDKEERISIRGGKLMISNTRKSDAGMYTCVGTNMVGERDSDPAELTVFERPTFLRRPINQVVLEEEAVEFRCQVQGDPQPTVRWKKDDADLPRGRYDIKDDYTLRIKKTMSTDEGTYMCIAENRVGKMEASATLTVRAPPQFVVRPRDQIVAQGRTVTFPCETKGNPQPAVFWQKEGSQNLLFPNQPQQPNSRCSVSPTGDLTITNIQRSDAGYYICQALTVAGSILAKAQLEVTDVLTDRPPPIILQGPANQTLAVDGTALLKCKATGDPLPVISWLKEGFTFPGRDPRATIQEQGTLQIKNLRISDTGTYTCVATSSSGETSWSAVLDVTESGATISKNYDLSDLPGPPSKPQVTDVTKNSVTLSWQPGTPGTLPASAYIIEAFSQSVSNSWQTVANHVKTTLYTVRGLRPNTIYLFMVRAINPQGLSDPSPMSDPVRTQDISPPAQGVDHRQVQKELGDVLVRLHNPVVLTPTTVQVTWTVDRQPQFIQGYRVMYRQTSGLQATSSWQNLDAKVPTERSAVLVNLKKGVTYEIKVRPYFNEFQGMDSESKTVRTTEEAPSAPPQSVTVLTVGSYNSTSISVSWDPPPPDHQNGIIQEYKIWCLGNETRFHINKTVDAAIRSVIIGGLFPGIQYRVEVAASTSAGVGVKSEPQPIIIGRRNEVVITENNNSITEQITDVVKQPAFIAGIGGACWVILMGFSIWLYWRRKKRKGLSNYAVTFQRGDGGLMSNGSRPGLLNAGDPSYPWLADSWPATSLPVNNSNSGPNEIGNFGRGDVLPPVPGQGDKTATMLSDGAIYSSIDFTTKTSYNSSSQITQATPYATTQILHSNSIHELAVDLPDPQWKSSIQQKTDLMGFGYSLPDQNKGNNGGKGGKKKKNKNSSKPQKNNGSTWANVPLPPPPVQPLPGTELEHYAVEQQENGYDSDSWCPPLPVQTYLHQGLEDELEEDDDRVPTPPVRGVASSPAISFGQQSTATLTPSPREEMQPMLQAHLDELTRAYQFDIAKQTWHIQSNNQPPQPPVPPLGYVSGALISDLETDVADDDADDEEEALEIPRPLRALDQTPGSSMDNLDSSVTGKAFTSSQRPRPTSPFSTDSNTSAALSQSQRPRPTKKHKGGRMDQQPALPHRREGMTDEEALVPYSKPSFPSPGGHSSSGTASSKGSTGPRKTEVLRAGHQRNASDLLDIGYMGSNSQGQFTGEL
# T3: Human ROBO2 Ig1-Ig2-His (human, UniProt Q9HCK4 31-220)
# T3 construct: the His tag is named only in the SPR paragraphs; the Octet and ELISA paragraphs print 'ROBO2 Ig1-Ig2' without a tag; also called ROBO2 Ig1-2; Human ROBO2 Ig 1,2
# T3 sequence: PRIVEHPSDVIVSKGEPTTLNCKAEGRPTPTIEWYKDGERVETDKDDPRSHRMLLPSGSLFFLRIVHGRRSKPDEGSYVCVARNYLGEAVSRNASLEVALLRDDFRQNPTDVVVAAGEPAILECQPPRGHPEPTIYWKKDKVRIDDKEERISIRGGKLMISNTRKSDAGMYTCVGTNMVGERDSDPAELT
# Experiments:
# [1] = target: T1, Terbium (Tb) labeled-SNAP tagged ROBO2 …; test: HTRF, 5 nM d2-SLIT2-N on Tb-SNAP-ROBO2 HEK293 cells, 1 nM antibody
# How it was run: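 Tb-SNAP-ROBO2 HEK293 cells incubated 1 hour with 5 nM d2-SLIT2-N, with 1 nM anti-ROBO2 antibody or none (maximal signal); cells alone gave minimum. HTRF read at 665/620 nm; IC50 series used 11-point, 5-fold dilutions from 1500 nM.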
# [2] = target: T2, Human ROBO2 overexpressed on HEK293 …; test: flow cytometry on HEK293 cells overexpressing human ROBO2; N.B. = No binding to ROBO2
# Procedure: The parental 93H2 antibody was highly ROBO2 specific, therefore affinity matured antibodies with single point neutralizing activity were screened by flow cytometry to ensure ROBO2 selectivity had been maintained. […] Binding of the antibodies was detected using a secondary fluorochrome conjugated anti-human IgG F(ab′)₂ antibody and samples were analyzed on a Fortessa cytometer (BD Biosciences). The fold ROBO2 selectivity was calculated as the geometric mean fluorescence intensity (Geo MFI) with ROBO2 cells/Geo MFI with ROBO1 cells. A fold change higher than 3 was considered to be ROBO2 specific (Table 2, Fold Selectivity). Some affinity matured clones had increased ROBO1 reactivity, for example Abcs 55, CTI-R2-10 and CTIR2-13.
# Table 2 is a summary of assays used to screen antibodies against ROBO1 and/or ROBO2 to identify an antibody that specifically recognized ROBO2 but not ROBO1 with high affinity. […] Full dose curves were performed in the same assay for select antibodies. Recognition of native, surface expressed protein and ROBO2 selectivity was evaluated by flow cytometry. […] Anything with a value of greater than 3 was deemed to be selective for ROBO2. Outcomes of the various screening assays conducted for each antibody are highlighted in the final column.
# Human ROBO2 Ig1-Ig2-His = target: T3, Human ROBO2 Ig1-Ig2-His; test: Octet (BLI), relative Kd
# [3] = target: T1, Terbium (Tb) labeled-SNAP tagged ROBO2 …; test: HTRF competition, competitor d2-SLIT2-N, ROBO2 HEK293 cells
# How it was run: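 HEK293 cells expressing Tb-labeled SNAP-ROBO2 were incubated 1 hour with 5 nM d2-SLIT2-N plus antibody, read as the 665/620 nm HTRF ratio. Controls were no antibody (maximal) and cells alone (minimal). Screening used 1 nM antibody; IC₅₀ came from 11-point, 5-fold dilutions starting at 1500 nM.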
# [4] = target: T2, Human ROBO2 overexpressed on HEK293 …; test: flow cytometry, Geo MFI ROBO2/ROBO1 HEK293 cells, 0.1 µg/ml
# Procedure: Binding of the antibodies was detected using a secondary fluorochrome conjugated anti-human IgG F(ab′)₂ antibody and samples were analyzed on a Fortessa cytometer (BD Biosciences). The fold ROBO2 selectivity was calculated as the geometric mean fluorescence intensity (Geo MFI) with ROBO2 cells/Geo MFI with ROBO1 cells. A fold change higher than 3 was considered to be ROBO2 specific (Table 2, Fold Selectivity). Some affinity matured clones had increased ROBO1 reactivity, for example Abcs 55, CTI-R2-10 and CTIR2-13.
# HTRF assays were run with 5 nM d2-labeled SLIT2-N and antibodies were added at 1 nM. […] Antibodies derived from chain (Abcs series) or CDR shuffling (CTIR-2 series) were evaluated in 11-point, 5-fold dilution series with a top concentration of 1500 nM, N.T. = not tested; ^cFold selectivity was calculated as Geometric Mean Fluorescent Intensity (Geo MFI) of ROBO2/Geo MFI of ROBO1 binding. […] Outcomes: results are listed in order of assays listed in the table (left to right), I.A. = Improved Affinity
Binder,HTRF Ratio [1],binding result [2],Kd (Human ROBO2 Ig1-Ig2-His) [nM],IC50 [3] [nM],Fold Selectivity for ROBO2/ROBO1 [4] [fold]
"Ab9 (antibody, human IgG1, kappa, V domains shown, full-length human IgG) VH: EVQLVQSGAEVKKPGASVKVSCKASGYTFTGYDMHWVRQAPGQGLEWMGWINPNSGATNFPQKFQGRVTMTRDTSITTAYMDLSRLRSDDTAVYYCARESGDDAFDIWGQGTMVTVSS VL: DIVMTQSPSSLSASVGDRVTITCRASQRISSYLNWYQQKPGKAPKLLIYAASSLQSGVPSRFSGSGSGTDFTLTISSLQPEDFATYYCQQSYSTSFGGGTKVEIKR",13600,no binding (tested: 0.1 µg/ml),–,–,–
"Ab17 (antibody, human IgG1, kappa, V domains shown, full-length human IgG) VH: EVQLVQSGAEVKKPGASVKVSCKASGYTFTGYDMHWVRQAPGQGLEWMGWINPNSGATNFPQKFQGRVTMTRDTSITTAYMDLSRLRSDDTAVYYCARESGDDAFDIWGQGTMVTVSS VL: DIVMTQSPSSLSASVGDRVTITCRASQSISSYLNWYQQKPGKAPKLLIYAASSLQEGVPSRFSGSGSGTDFTLTISSLQPEDFATYYCQQSYSTSFGGGTKVEIKR",13500,no binding (tested: 0.1 µg/ml),–,–,–
"Ab13 (antibody, human IgG1, kappa, V domains shown, full-length human IgG) VH: EVQLVQSGAEVKKPGASVKVSCKASGYTFTGYDMHWVRQAPGQGLEWMGWINPNSGATNFPQKFQGRVTMTRDTSITTAYMDLSRLRSDDTAVYYCARESGDDAFDIWGQGTMVTVSS VL: DIVMTQSPSSLSASVGDRVTITCRASQSISSYLNWYQQKPGKAPKLLIYAASSLQDGVPSRFSGSGSGTDFTLTISSLQPEDFATYYCQQSYSTSFGGGTKVEIKR",13800,no binding (tested: 0.1 µg/ml),–,–,–
"Ab21 (antibody, human IgG1, kappa, V domains shown, full-length human IgG) VH: EVQLVQSGAEVKKPGASVKVSCKASGYTFTGYDMHWVRQAPGQGLEWMGWINPNSGATNFPQKFQGRVTMTRDTSITTAYMDLSRLRSDDTAVYYCARESGDDAFDIWGQGTMVTVSS VL: DIVMTQSPSSLSASVGDRVTITCRASQSISSYLNWYQQKPGKAPKLLIYAASSLQYGVPSRFSGSGSGTDFTLTISSLQPEDFATYYCQQSYSTSFGGGTKVEIKR",13100,no binding (tested: 0.1 µg/ml),–,–,–

# Results, then the binder that gave them:
HTRF Ratio [1],binding result [2],Kd (Human ROBO2 Ig1-Ig2-His) [nM],IC50 [3] [nM],Fold Selectivity for ROBO2/ROBO1 [4] [fold],Binder
7710,–,1.4,0.26,80.5,"Ab123 (antibody, human IgG1, kappa, V domains shown, full-length human IgG) VH: EVQLVQSGAEVKKPGASVKVSCKASGYTFTGYYMHWVRQAPGQGLEWMGWINPNSGATNFPQKFQGRVTMTRDTSITTAYMDLSRLRSDDTAVYYCARESGDDAFDIWGQGTMVTVSS VL: DIVMTQSPSSLSASVGDRVTITCRASQSISSYLNWYQQKPGKAPKLLIYAASSLQSGVPSRFSGSGSGTDFTLTISSLQPEDFATYYCQQSVGLFFGGGTKVEIKR"
3680,–,1.2,0.166,35,"Ab96 (antibody, human IgG1, kappa, V domains shown, full-length human IgG) VH: EVQLVQSGAEVKKPGASVKVSCKASGYTFTGYYMHWVRQAPGQGLEWMGWINPKNGDTEFPQKFQGRVTMTRDTSITTAYMDLSRLRSDDTAVYYCARESGDDAFDIWGQGTMVTVSS VL: not shown"

# Reference: patent US20200157212A1 (Pfizer, published 2020)
